According to publication PMC8675929 (PLoS Pathogens, 2021):

T1: 36mer repeat peptide (NANP)9 (Plasmodium falciparum repeat, synthetic …)
T1 construct: printed as (NANP)9, 36mer; nine NANP tetrapeptides of the central repeat region of Plasmodium falciparum circumsporozoite protein; source: created by Genscript, as previously described [21,40]
T1 chain: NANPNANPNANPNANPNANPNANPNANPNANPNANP

B1: L4 (antibody, V domains shown)
VH: QLQLQESGPRLVKPSETLSLTCTVSGGSISRTSYYWDWIRQPPGKGLEWIGSIYYRGSTYHNPSLKSRVTISVDTSKNQFSLRLTSVTAADTAVYYCARPKNLGVVAATNWFDPWGQGTLVTVSS
VL: QSVLTQPPSVSGAPGQRVTISCTGSSSNIGATYDVHWYQQLPGTAPKLLIYDNNNRPSGVPDRFSGSKSGTSASLAITGLQADDEADYYCQSYDSSLSGVVFGGGTKLTVL
B2: 1710 (antibody, V domains shown)
VH: EVQLQESGGGLVKPGGSLRLSCAASGFTFSSYSMNWVRQAPGKGLEWVSSITSSSSYIYYADSVKGRFTISRDNAKNSLYLQMNSLRAEDTAVYYCARDPGIAAADNHWFDPWGQGTLVTVSS
VL: not shown
B3: L7 (antibody, V domains shown)
VH: QLQLQESGPGLVKPSETLSLTCTVSGGSISSSNYYWDWIRQPPGKGLEWIGSINYSGSTYYNPSLKSRVTISVDTSKIQFSLKMSSVTAADTAVYYCARRRVDFWSGYNWFDPWGQGTLVTVSS
VL: QPVLTQPPSASASMGASVTLTCTLSSGYSKYKVDWYQQRPGKGPRFVMRAGTGGIVGSKGDGIPDRFSVLGSGLNRYLTIKNIQEEDESDYHCGADHGSGSNFVYVFGTGTKVTIL
B4: L15 (antibody, V domains shown)
VH: EVQLVESGGVVVQPGGSLRLSCAASGFTFDDYTMHWVRQAPGKGLEWVSLISWDGGTTYYADSVKGRFTISRDNSKNSLYLRMNSLRTEDTALYYCAKGLVAQWLRGDYYYGLHVWGQGTTVTVSS
VL: QSALTQPASVSGSPGQSITISCTGTSSDVGAYNSVSWYQQHPGKAPKLMIYDVTNRPSGVSNRFSGSKSGNTASLTISGLQAEDEADYYCSSYTITNTLVFGGGTKLTVL
B5: L20 (antibody, V domains shown)
VH: EVQLVESGGGLVQPGRSLRLSCAASGFTFDDYAMHWVRQAPGKGLEWVSGINWNSGSIGYADSVKGRFTISRDNARNSLYLQMNGLRAEDTAFYYCAKDLRAYYYGSGSPWGFHHWGQGTLVTVSS
VL: QSALTQPPSASGSPGQSVTISCTGTSSDVGGYNYVSWYEQHPGKAPKLLIYEVSKRPSGVPDRFSGSKSGNTASLTVSGLQAEDEADYYCSSYAGSNNVVFGGGTKLTVL

These binders were tested against T2, N-CSP (N-terminus of PfCSP) (Plasmodium falciparum 3D7, UniProt Q7K740) (assay: ELISA). Conditions: both partners purified.
T2 construct: source: created by Genscript, as previously described [21,40]

Binder | binding result
B1 | no binding (tested: 5.0 μg/mL)
B2 | no binding (tested: 5.0 μg/mL)
B3 | no binding (tested: 5.0 μg/mL)
B4 | no binding (tested: 5.0 μg/mL)
B5 | no binding (tested: 5.0 μg/mL)

The binders below were run against T3, full-length recombinant PfCSP (FL-rCSP) (Plasmodium falciparum 3D7 (clone of …, UniProt Q7K740)) (assay: ELISA). Conditions: both partners purified.
T3 construct: also called PfCSP_3D7

Binder | binding result
B1 | binds
B3 | binds
B4 | binds
B5 | binds

These binders were tested against T4, recombinant C-CSP construct (PfCSP_3D7 amino acids 295–374) (Plasmodium falciparum 3D7, UniProt Q7K740) (assay: ELISA). Conditions: both partners purified.
T4 construct: also called C-terminal domain of PfCSP

Binder | binding result
B1 | binds
B2 | binds
B3 | binds
B4 | binds
B5 | binds

Each binder was assayed against full-length PfCSP on transgenic P. berghei sporozoites (Pb-PfCSP-GFP/Luc-SPZ) (Plasmodium falciparum, 3D7 (transgene …, UniProt Q7K740)) (assay: flow cytometry on cells; 20 μg/mL mAb on midgut (MG) Pb-PfCSP-SPZ; goat anti-human IgG-Alexa Fluor 647). Conditions: one partner purified.

Binder | binding result
B4 | binds

Molecular target: T1, 36mer repeat peptide (NANP)9
Assay: ELISA; antigen coated at 0.5 μg/mL in bicarbonate buffer overnight at 4°C; mAbs 5x10^-7–5.0 μg/mL, 2 hrs at 37°C; HRP-conjugated goat anti-human IgG; AUC of OD450
Conditions: both partners purified

Binder | binding result
B1 | no binding (tested: 5.0 μg/mL)
B3 | no binding (tested: 5.0 μg/mL)
B4 | no binding (tested: 5.0 μg/mL)
B5 | no binding (tested: 5.0 μg/mL)
